System: K4 kissing-loop RNA reporter
Test: apparent KD of K4 kissing-loop reporter; higher = weaker reporter binding
Settings: Eterna round: R107
Experimental: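 RNA-MaP round R107: designed RNA switches with theophylline, tryptophan, arginine or FMN aptamers are transcribed on-chip within common flanks. They are titrated with a labelled K4 kissing-loop RNA reporter in RNA-MaP buffer (100 mM Tris pH 7.5, 80 mM KCl, 4 mM MgCl2), without ligand or with the indicated ligand. Median apparent KD per design.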

[1] = input ligand: theophylline 20 uM
[2] = input ligand: tryptophan 2.4 mM
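Further: bound reporter read as fluorescence of individual clusters on recovered sequencing chips by microscopy, with normalized cluster intensities fitted with a binding model.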

GACCCAGAAGCACACCUAAAGUUGACAGAUACCAGCGUCGUUUGGCGCCCUUGGCAGCUGGUCAGUGAUGUUGAUAGCUUCGACU [theeternabot_sameState_KL_Theo_A_24]
apparent KD of K4 kissing-loop reporter (input ligand: FMN 200 uM): 197 nM
apparent KD of K4 kissing-loop reporter (input ligand: arginine 13.2 mM): 69.5 nM
apparent KD of K4 kissing-loop reporter (input ligand: none): 181 nM
apparent KD of K4 kissing-loop reporter [1]: 89.5 nM
apparent KD of K4 kissing-loop reporter [2]: 93.6 nM

GAUAAAUUGAUGCGUAGUGAUGCACGGGAAGGAGCGCGUUUUUUCGCAGGUAGGUCGCCCGACUGCGCGUUUCGAGUGAUGUUCG [5.)]
apparent KD of K4 kissing-loop reporter (input ligand: FMN 200 uM): 192 nM
apparent KD of K4 kissing-loop reporter (input ligand: arginine 13.2 mM): 198 nM
apparent KD of K4 kissing-loop reporter (input ligand: none): 193 nM
apparent KD of K4 kissing-loop reporter [1]: 197 nM
apparent KD of K4 kissing-loop reporter [2]: 172 nM

GAUAUAGUGAUGUUAUAUACUGAUAGACAACGAGGACCGGUACGGCCGCCACUCGAGAGGGUGAAAAUGGUGAUAAAAUAAUGAU [#03 K4 Tryptophan A Exclusion]
apparent KD of K4 kissing-loop reporter (input ligand: FMN 200 uM): 349 nM
apparent KD of K4 kissing-loop reporter (input ligand: arginine 13.2 mM): 271 nM
apparent KD of K4 kissing-loop reporter (input ligand: none): 381 nM
apparent KD of K4 kissing-loop reporter [1]: 322 nM
apparent KD of K4 kissing-loop reporter [2]: 274 nM

GAUGGGUAUCAAGGAUAUGCCACUAUUGACUCCUAGAUGGUCAACCAUAUAAUGCGAGUGAUGUUCGCAGAAGGUGAUUCUUAGC [theeternabot_exclusion_KL_FMN_B_24]
apparent KD of K4 kissing-loop reporter (input ligand: FMN 200 uM): 92.3 nM
apparent KD of K4 kissing-loop reporter (input ligand: arginine 13.2 mM): 92.3 nM
apparent KD of K4 kissing-loop reporter (input ligand: none): 89.5 nM
apparent KD of K4 kissing-loop reporter [1]: 89.7 nM
apparent KD of K4 kissing-loop reporter [2]: 73.2 nM

GAUGUAGAGGCGGCCGCCACUAGUGAUGUUAGUGAUGUUUGAUACUGUAUAUAUCGGCGUGUAGAUAGGACCGGGCCUGAUGGAG [dbbdmullin]
apparent KD of K4 kissing-loop reporter (input ligand: FMN 200 uM): 276 nM
apparent KD of K4 kissing-loop reporter (input ligand: arginine 13.2 mM): 165 nM
apparent KD of K4 kissing-loop reporter (input ligand: none): 214 nM
apparent KD of K4 kissing-loop reporter [1]: 225 nM
apparent KD of K4 kissing-loop reporter [2]: 201 nM

GAUUAAUAAGAGGAUACCAGUACUAAUAAAGUACAUUAAUAGUAGAGUGAUGUUCUAUAGUACCCUUGGCAGCUUAGAGUAAGUU [#09 K4 Theophylline B Exclusion]
apparent KD of K4 kissing-loop reporter (input ligand: FMN 200 uM): 131 nM
apparent KD of K4 kissing-loop reporter (input ligand: arginine 13.2 mM): 200 nM
apparent KD of K4 kissing-loop reporter (input ligand: none): 167 nM
apparent KD of K4 kissing-loop reporter [1]: 210 nM
apparent KD of K4 kissing-loop reporter [2]: 103 nM

GAUUCAGUGAUGUUGGAAGGCGAGCGGGAUACCAGCGGAGACUCACGCCCUUGGCAGCCCACAUAUCCCAGGUAGAUAAUAGAUC [Same State - Theophylline A (Freestyle 7)]
apparent KD of K4 kissing-loop reporter (input ligand: FMN 200 uM): 201 nM
apparent KD of K4 kissing-loop reporter (input ligand: arginine 13.2 mM): 123 nM
apparent KD of K4 kissing-loop reporter (input ligand: none): 178 nM
apparent KD of K4 kissing-loop reporter [1]: 160 nM
apparent KD of K4 kissing-loop reporter [2]: 180 nM

GAUUGUGAUGGAAACAUCGCAAUCUCUGAAGGAGCGCGUGAAAACGCAGGUAGGUCGCAGAACGACAAAGACAGUGAUGUUGUCA [Ex Arginine A K4 5]
apparent KD of K4 kissing-loop reporter (input ligand: FMN 200 uM): 321 nM
apparent KD of K4 kissing-loop reporter (input ligand: arginine 13.2 mM): 263 nM
apparent KD of K4 kissing-loop reporter (input ligand: none): 289 nM
apparent KD of K4 kissing-loop reporter [1]: 298 nM
apparent KD of K4 kissing-loop reporter [2]: 234 nM

GCAAAGGCCCAUCGGAAUUCGAGACCAGCACGAGGACCGGUACGGCCGCCACUCGUGCAGUGAUGUUGCACGAAUGGGAAACCGC [Oninanso]
apparent KD of K4 kissing-loop reporter (input ligand: FMN 200 uM): 112 nM
apparent KD of K4 kissing-loop reporter (input ligand: arginine 13.2 mM): 103 nM
apparent KD of K4 kissing-loop reporter (input ligand: none): 125 nM
apparent KD of K4 kissing-loop reporter [1]: 118 nM
apparent KD of K4 kissing-loop reporter [2]: 147 nM

GCAACAUUGGCAGGAUAUCAUUCUGAGUGAUGUUCAGGGUUCAGCUAACGAAAGUUAGUUGUACCAUGAGAAGGGCUAAUGUUGC [Omei KL FMN B SS A v1]
apparent KD of K4 kissing-loop reporter (input ligand: FMN 200 uM): 332 nM
apparent KD of K4 kissing-loop reporter (input ligand: arginine 13.2 mM): 886 nM
apparent KD of K4 kissing-loop reporter (input ligand: none): 1120 nM
apparent KD of K4 kissing-loop reporter [1]: 1020 nM
apparent KD of K4 kissing-loop reporter [2]: 1080 nM

GCAACAUUGGCAGGAUAUCCUUCUCAGUGAUGUUGAGGGUUCAGCUAACGAAAGUUAGUUGUACCGGGAGAAGGGCUAAUGUUGC [Omei KL FMN B SS A v8]
apparent KD of K4 kissing-loop reporter (input ligand: FMN 200 uM): 288 nM
apparent KD of K4 kissing-loop reporter (input ligand: arginine 13.2 mM): 650 nM
apparent KD of K4 kissing-loop reporter (input ligand: none): 1100 nM
apparent KD of K4 kissing-loop reporter [1]: 913 nM
apparent KD of K4 kissing-loop reporter [2]: 1240 nM

GCAGUCCGGACGGCCGCCACUAUCCGUAAAGUGAUGUUUUACGAACAAUCGAUUGCAUAUCAGAAUAGGACCGGGUCCGUCGACC [theeternabot_sameState_KL_Trp_B_15]
apparent KD of K4 kissing-loop reporter (input ligand: FMN 200 uM): 228 nM
apparent KD of K4 kissing-loop reporter (input ligand: arginine 13.2 mM): 185 nM
apparent KD of K4 kissing-loop reporter (input ligand: none): 212 nM
apparent KD of K4 kissing-loop reporter [1]: 170 nM
apparent KD of K4 kissing-loop reporter [2]: 201 nM

GCAGUGAUGUUGCGGAUGUACAGUGGCGUGCGAGGACCGGUACGGCCGCCACUCGUACAGAACAAGCUAAUACAUCGAUAGGUGA [whbob_SS_Tryp_A_m1]
apparent KD of K4 kissing-loop reporter (input ligand: FMN 200 uM): 493 nM
apparent KD of K4 kissing-loop reporter (input ligand: arginine 13.2 mM): 294 nM
apparent KD of K4 kissing-loop reporter (input ligand: none): 556 nM
apparent KD of K4 kissing-loop reporter [1]: 516 nM
apparent KD of K4 kissing-loop reporter [2]: 355 nM

GCAUCAUGCUACGAUACCAGAAGUUCCCUUUAGUGUAGUGAUGUUGCAGAUAUUGCUUACUUCCCUUGGCAGCGUUUGACGGGUA [theeternabot_sameState_KL_Theo_B_35]
apparent KD of K4 kissing-loop reporter (input ligand: FMN 200 uM): 256 nM
apparent KD of K4 kissing-loop reporter (input ligand: arginine 13.2 mM): 205 nM
apparent KD of K4 kissing-loop reporter (input ligand: none): 220 nM
apparent KD of K4 kissing-loop reporter [1]: 335 nM
apparent KD of K4 kissing-loop reporter [2]: 155 nM

GCAUCCAUGGCAGGAUAUAGGUUCGUGGAGUGAUGUUCCAUAGCCCGAGUGAUGUUCGUUAUCCGCCUAGAAGGGCCGUGGAUGC [whbob_Ex_FMNB__2th214]
apparent KD of K4 kissing-loop reporter (input ligand: FMN 200 uM): 248 nM
apparent KD of K4 kissing-loop reporter (input ligand: arginine 13.2 mM): 184 nM
apparent KD of K4 kissing-loop reporter (input ligand: none): 235 nM
apparent KD of K4 kissing-loop reporter [1]: 192 nM
apparent KD of K4 kissing-loop reporter [2]: 212 nM

GCCAGUGAUGUUGGCAUUUCGAGCCAUGAAGGAGCGCACGGAAGUGCAGGUAGGUCGCAUGGUACUUAGGAUAUUAUCCUAAGUA [Antearxe]
apparent KD of K4 kissing-loop reporter (input ligand: FMN 200 uM): 180 nM
apparent KD of K4 kissing-loop reporter (input ligand: arginine 13.2 mM): 169 nM
apparent KD of K4 kissing-loop reporter (input ligand: none): 224 nM
apparent KD of K4 kissing-loop reporter [1]: 178 nM
apparent KD of K4 kissing-loop reporter [2]: 144 nM

GCCAGUGCGCGAAGGAGCGCCGUGACAGGUUACUGCCUUGGGCAGUGAUGUUGCUCAAUCUGGCAGGUAGGUCGCGUGCACUGGC
apparent KD of K4 kissing-loop reporter (input ligand: FMN 200 uM): 212 nM
apparent KD of K4 kissing-loop reporter (input ligand: arginine 13.2 mM): 184 nM
apparent KD of K4 kissing-loop reporter (input ligand: none): 166 nM
apparent KD of K4 kissing-loop reporter [1]: 204 nM
apparent KD of K4 kissing-loop reporter [2]: 197 nM

GCCCGGGCGAGUGAUGUUCGCCCACGUGAUACCAGUGCCAUCCAACACCCUUGGCAGCACGCGGGCAGUGAUGUUGCCCUUGUAU [Exclusion Theophylline A GF 4]
apparent KD of K4 kissing-loop reporter (input ligand: FMN 200 uM): 115 nM
apparent KD of K4 kissing-loop reporter (input ligand: arginine 13.2 mM): 110 nM
apparent KD of K4 kissing-loop reporter (input ligand: none): 122 nM
apparent KD of K4 kissing-loop reporter [1]: 138 nM
apparent KD of K4 kissing-loop reporter [2]: 111 nM

GCCGCAAGGAUAGCAGCAAUAGGCGCUCGCUAGGAUAUCUGGAAACAGAGAAGGAGCUGGAGUGAUGUUUUACCUCCUAAAAUUA
apparent KD of K4 kissing-loop reporter (input ligand: FMN 200 uM): 517 nM
apparent KD of K4 kissing-loop reporter (input ligand: arginine 13.2 mM): 1900 nM
apparent KD of K4 kissing-loop reporter (input ligand: none): 682 nM
apparent KD of K4 kissing-loop reporter [1]: 210 nM
apparent KD of K4 kissing-loop reporter [2]: 1070 nM

GCCGUACGCAUGGAUACCAGAGAUGUUAAUCUCGAUGCCAGUGAUGUUGGCUUUAGCUAUCUCCCUUGGCAGCCAUGCGUACGGC
apparent KD of K4 kissing-loop reporter (input ligand: FMN 200 uM): 1050 nM
apparent KD of K4 kissing-loop reporter (input ligand: arginine 13.2 mM): 608 nM
apparent KD of K4 kissing-loop reporter (input ligand: none): 909 nM
apparent KD of K4 kissing-loop reporter [1]: 566 nM
apparent KD of K4 kissing-loop reporter [2]: 1000 nM

GCCGUACGCAUGGAUACCAGCCGACCUGAUGUUAAGCUGGUGCCGUAGUGAUGUUACGAAGGCCCUUGGCAGCCAUGCGUACGGC
apparent KD of K4 kissing-loop reporter (input ligand: FMN 200 uM): 211 nM
apparent KD of K4 kissing-loop reporter (input ligand: arginine 13.2 mM): 147 nM
apparent KD of K4 kissing-loop reporter (input ligand: none): 209 nM
apparent KD of K4 kissing-loop reporter [1]: 176 nM
apparent KD of K4 kissing-loop reporter [2]: 196 nM

GCCGUACGCAUGGAUACCAGUUGCGAAGUGAUGUUUCGGGCGAUCAAAGGAUCGCCAGACAACCCUUGGCAGCCAUGCGUACGGC
apparent KD of K4 kissing-loop reporter (input ligand: FMN 200 uM): 757 nM
apparent KD of K4 kissing-loop reporter (input ligand: arginine 13.2 mM): 506 nM
apparent KD of K4 kissing-loop reporter (input ligand: none): 1600 nM
apparent KD of K4 kissing-loop reporter [1]: 769 nM
apparent KD of K4 kissing-loop reporter [2]: 674 nM

From the supplement of paper PMC9170038
